# B1: CPEB3 Ribozyme (parent)
# chain: GGGGGCCACAGCAGAAGCGUUCACGUCGCGGCCCCUGUCAGAUUCUGGUGAAUCUGCGAAUUCUGCUGU
# Variants of: B1
# Assay: self-cleavage, relative activity (ratio to wild type); higher = more cleavage; co-transcriptional
row,Variant,self-cleavage
1,GGAGGCCACAGCAGAAGCGUUCACGUCGCGGCCCCUGUCAGAUUCUGGUGAAUCUGCGAAUUCAGCUGU,0.458
2,GGAGGCCACAGCAGAAGCGUUCACGUCGCGGCCCCUGUCAGAUUCUGGUGAAUCUGCGAAUUCCGCUGU,0.436
3,GGAGGCCACAGCAGAAGCGUUCACGUCGCGGCCCCUGUCAGAUUCUGGUGAAUCUGCGAAUUCGGCUGU,0.521
4,GGAGGCCACAGCAGAAGCGUUCACGUCGCGGCCCCUGUCAGAUUCUGGUGAAUCUGCGAAUUCUGCAGU,0.778
5,GGCGGACACAGCAGAAGCGUUCACGUCGCGGCCCCUGUCAGAUUCUGGUGAAUCUGCGAAUUCUGCUGU,0.0513
6,GGCGGCCACAGCAGAAGCGUUCAAGUCGCGGCCCCUGUCAGAUUCUGGUGAAUCUGCGAAUUCUGCUGU,0.0571
7,GGCGGCCAUAGCAGAAGCGUUCACGUCGCGGCCCCUGUCAGAUUCUGGUGAAUCUGCGAAUUCUGCUGU,0.441
8,GGAGGCCACAGCAGAAGCGUUCACGUCGCGGCCCCUGUCAGAUUCUGGUGAAUCUGCCAAUUCUGCUGU,0.338
9,GGAGGCCACAGCAGAAGCGUUCACGUCGCGGCCCCUGUCAGAUUCUGGUGAAUCUGCAAAUUCUGCUGU,0.315
10,GGCGGCCACAGCAGAAGCGUUCACGUCGCGGCCCCUGUCAGAUUCUGGUGAAUCUCCGAAUUCUGCUGU,0.0668
11,GGCGGCCACAGCAGAAGCGUUCACGUCGCGGCCCCUGUCAGAUUCUGGUGAAUCUACGAAUUCUGCUGU,0.0675
12,GGCGGCCACAGCAGAAGCGCUCACGUCGCGGCCCCUGUCAGAUUCUGGUGAAUCUGCGAAUUCUGCUGU,0
13,GGCGGCCACAGCAGAAGCGUUCACGUCGCGGCCCCUGUCAGAUUCUGGUUAAUCUGCGAAUUCUGCUGU,0.133
14,GGCGGCCACAGCAGAAGCGUUCACGUCGCGGCCCCUGUCAGAUUCUGGUCAAUCUGCGAAUUCUGCUGU,0.0988
15,GGCGGCCACAGCAGAAGCGUUCACGUCGCGGCCCCUGUCAGACUCUGGUGAAUCUGCGAAUUCUGCUGU,0.121
16,GGCGGCCACAGCAGAAGCGUUCACGUCGCGGCCCGUGUCAGAUUCUGGUGAAUCUGCGAAUUCUGCUGU,0.0557
17,GGCGGCCACAGCAGAAGCGUUCACGUCGCGGCCCAUGUCAGAUUCUGGUGAAUCUGCGAAUUCUGCUGU,0.0343
18,GGCGGCCACAGCGGAAGCGUUCACGUCGCGGCCCCUGUCAGAUUCUGGUGAAUCUGCGAAUUCUGCUGU,0.18
19,GGCGGCCACAGCAGAAGCGUUCACGUCGCGACCCCUGUCAGAUUCUGGUGAAUCUGCGAAUUCUGCUGU,0.0559
20,GGCGGCCACAGCAGAAGCGUUCACGUCGCGUCCCCUGUCAGAUUCUGGUGAAUCUGCGAAUUCUGCUGU,0.048

row,Variant,self-cleavage
1,GGCGGCCACAGGAGAAGCGUUCACGUCGCGGCCCCUGUCAGAUUCUGGUGAAUCUGCGAAUUCUGCUGU,0.0121
2,GGCGGCCACAGCAGAAGCGUUCACGUCGCGGCCCCUGUCACAUUCUGGUGAAUCUGCGAAUUCUGCUGU,0.0352
3,GGCGGCCACAGCAGAAGCGUUCACGUCGCGGCCCCUGUCAGAUUCUGGUGAAUCUGCGAAUUCUACUGU,0.117
4,GGCGGCCACAGCAGAAGCGUUCACGUCUCGGCCCCUGUCAGAUUCUGGUGAAUCUGCGAAUUCUGCUGU,0.0508
5,GGCGGCCACAGCAGAAGCGUUCACGUCGCGGCCCCUGUCAGAUUCUGGUGAAUCUGCGAAUUCUGUUGU,0.127
6,GGAGGCCACAGCAGAAGCGUUCACGUCGCGGCCCCUGUCAGAUUCUGGUGAAUCAGCGAAUUCUGCUGU,0.395
7,GGCGGCCACAGCAGAAGCGUUCACGUCGCGGCCCCUGUCAGAUUCUGGUGAAUCUGCGAUUUCUGCUGU,0.0697
8,GGCGGCCACAGCAGAAGCGUUCACGUCGCUGCCCCUGUCAGAUUCUGGUGAAUCUGCGAAUUCUGCUGU,0.0314
9,GGCGGCCACAGCAGAAGCGUUCACGUCGCGGCCUCUGUCAGAUUCUGGUGAAUCUGCGAAUUCUGCUGU,0.45
10,GGCGGCCACAGCAGAAGCGUUCACGUCGCGGCCACUGUCAGAUUCUGGUGAAUCUGCGAAUUCUGCUGU,0.465
11,GGCGGCCACUGCAGAAGCGUUCACGUCGCGGCCCCUGUCAGAUUCUGGUGAAUCUGCGAAUUCUGCUGU,0.334
12,GGCGGCCACAGCAGAAGCGUUCACGUCGCGGCCCCUGUCAGAUUCUGGUGAAUCUGCGAAUUCUGCUUU,0.374
13,GGAGGCCACAGCAGAAGCGUUCACGCCGCGGCCCCUGUCAGAUUCUGGUGAAUCUGCGAAUUCUGCUGU,0.571
14,GGAGGCCACAGCAGAAGCGUUCACGUCGCGGCCCCUGUCAGAUUCUGGUGAAUCUGCGAAUUCUCCUGU,0.338
15,GGAGGCCACAGCAGAAGCGUUCACGUCGCGGCCCCUGUCAGAUUCUGGUGAAUCUGCGAAUUCUGCUGC,0.97
16,GGCGGCCACAGCAGAAGCGUUCACGUCGCGGCCCCUGUCAGAUUCUGGUGAAUAUGCGAAUUCUGCUGU,0.0635
17,GGCGGCCACAGCAGAAGCGUUCACGUCGCGGCCCCUGUCAGAUUCUGGUGAAUUUGCGAAUUCUGCUGU,0.125
18,GGCGGCCACAGCAGAAGCGUUCACGUCGCGGCCCCUGUCAGAUCCUGGUGAAUCUGCGAAUUCUGCUGU,0.132
19,GGCGGCCACAGCAGAAGCGUUCACGUCGCGGCCCCUGCCAGAUUCUGGUGAAUCUGCGAAUUCUGCUGU,0.0718

# Source: the RNAGym collection of RNA variant scans (doi:10.7554/elife.80360)
